Reference: publication PMC5428876, “The role of Lon-mediated proteolysis in the dynamics of mitochondrial nucleic acid-protein complexes”

Assays:
Abf2 = molecular target: T1, Abf2 (Saccharomyces cerevisiae, UniProt Q02486 27-183, del1-26); test: EMSA; 25 mM Tris-HCl pH 7.4, 100 mM NaCl, 0.1 mg/ml BSA, 10 min, 30 C (Abf2) or 37 C (TFAM); Cy3 probes 75 nM, ssDNA 10 uM, dsDNA 4 uM; Mgm101 as in Pevala et al.; settings: protein: recombinant, tags: 6xHis-GST removed by PreScission, chain copies: 2, label: 5' Cy3
T1 sequence: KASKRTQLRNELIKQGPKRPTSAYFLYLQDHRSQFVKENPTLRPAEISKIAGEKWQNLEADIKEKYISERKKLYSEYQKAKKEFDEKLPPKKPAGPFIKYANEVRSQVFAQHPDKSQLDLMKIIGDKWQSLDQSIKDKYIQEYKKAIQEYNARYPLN

[1] = molecular target: T2, Saccharomyces cerevisiae mtDNA packaging protein Abf2 lacking the mitochondrial targeting sequence (S. cerevisiae), Q02486; test: SEC; final purification step of Abf2 on Superdex 75 10/300 GL in buffer B (50 mM ammonium acetate, pH 7.3, 500 mM KCl) with 5% (v/v) glycerol; settings: remark: other sources report otherwise
T2 chain: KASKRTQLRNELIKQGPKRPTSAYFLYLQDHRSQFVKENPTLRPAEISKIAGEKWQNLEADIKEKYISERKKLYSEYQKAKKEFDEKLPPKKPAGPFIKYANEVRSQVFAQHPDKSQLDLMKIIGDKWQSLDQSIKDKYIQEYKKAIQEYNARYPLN

B1: dsDNA 49 bp (dsDNA)
DNA 1: AGCTACCATGCCTGCACGAATTAAGCAATTCGTAATCATGGTCATAGCT
DNA 2: AGCTATGACCATGATTACGAATTGCTTAATTCGTGCAGGCATGGTAGCT
Abf2; blunt
  binding result: binds

B2: Y-form (structured_DNA)
DNA 1: AGCTACCATGCCTGCACGAATTAAGCAATTCGTAATCATGGTCATAGCT
DNA 2: AGCTATGACCATGATTACGAATTGCTTGGAATCCTGACGAACTGTAG
Abf2; Y-form
  binding result: binds

B3: 5' overhang (mixed)
DNA 1: AGCTACCATGCCTGCACGAATTAAGCAATTCGTAATCATGGTCATAGCT
DNA 2: AGCTATGACCATGATTACGAATTGCTT
Abf2; 5' overhang 22 nt
  binding result: binds

B4: 3' flap (structured_DNA)
DNA 1: AGCTACCATGCCTGCACGAATTAAGCAATTCGTAATCATGGTCATAGCT
DNA 2: AATTCGTGCAGGCATGGTAGCT
DNA 3: AGCTATGACCATGATTACGAATTGCTTGGAATCCTGACGAACTGTAG
Abf2; flap 1:2 1:3, 3' flap 20 nt on strand 3
  binding result: binds

B5: 3' overhang (mixed)
DNA 1: AGCTACCATGCCTGCACGAATTAAGCAATTCGTAATCATGGTCATAGCT
DNA 2: AATTCGTGCAGGCATGGTAGCT
Abf2; 3' overhang 27 nt
  binding result: binds

B6: 5' flap (structured_DNA)
DNA 1: AGCTACCATGCCTGCACGAATTAAGCAATTCGTAATCATGGTCATAGCT
DNA 2: AGCTATGACCATGATTACGAATTGCTT
DNA 3: GATGTCAAGCAGTCCTAAGGAATTCGTGCAGGCATGGTAGCT
Abf2; flap 1:2 1:3, 5' flap 20 nt on strand 3
  binding result: binds

B7: fork (structured_DNA)
DNA 1: AGCTACCATGCCTGCACGAATTAAGCAATTCGTAATCATGGTCATAGCT
DNA 2: AGCTATGACCATGATTACGAATTGCTTGGAATCCTGACGAACTGTAG
DNA 3: CTACAGTTCGTCAGGATTCC
DNA 4: AATTCGTGCAGGCATGGTAGCT
Abf2; fork
  binding result: binds

B8: Saccharomyces cerevisiae mtDNA packaging protein Abf2 lacking the mitochondrial targeting sequence, Q02486 27-183 (natural protein)
chain: KASKRTQLRNELIKQGPKRPTSAYFLYLQDHRSQFVKENPTLRPAEISKIAGEKWQNLEADIKEKYISERKKLYSEYQKAKKEFDEKLPPKKPAGPFIKYANEVRSQVFAQHPDKSQLDLMKIIGDKWQSLDQSIKDKYIQEYKKAIQEYNARYPLN
[1]
  stoichiometry N: 2
